These results are taken from patent US20170008933A1 (GlaxoSmithKline, published 2017).

Substitutions are numbered along the chain they refer to. Numbers in names are those of the source.

Assay [1] has as its target T1, human factor H (human, UniProt P08603 19-1231).
T1 construct: Immobilised on the chip in the SPR experiments; also called fH
Kind of assay: SPR.

In assay [2] the target is T1, human factor H. Kind of assay: SPR against immobilised fH.

T1 sequence (P08603 19-1231 limits assumed): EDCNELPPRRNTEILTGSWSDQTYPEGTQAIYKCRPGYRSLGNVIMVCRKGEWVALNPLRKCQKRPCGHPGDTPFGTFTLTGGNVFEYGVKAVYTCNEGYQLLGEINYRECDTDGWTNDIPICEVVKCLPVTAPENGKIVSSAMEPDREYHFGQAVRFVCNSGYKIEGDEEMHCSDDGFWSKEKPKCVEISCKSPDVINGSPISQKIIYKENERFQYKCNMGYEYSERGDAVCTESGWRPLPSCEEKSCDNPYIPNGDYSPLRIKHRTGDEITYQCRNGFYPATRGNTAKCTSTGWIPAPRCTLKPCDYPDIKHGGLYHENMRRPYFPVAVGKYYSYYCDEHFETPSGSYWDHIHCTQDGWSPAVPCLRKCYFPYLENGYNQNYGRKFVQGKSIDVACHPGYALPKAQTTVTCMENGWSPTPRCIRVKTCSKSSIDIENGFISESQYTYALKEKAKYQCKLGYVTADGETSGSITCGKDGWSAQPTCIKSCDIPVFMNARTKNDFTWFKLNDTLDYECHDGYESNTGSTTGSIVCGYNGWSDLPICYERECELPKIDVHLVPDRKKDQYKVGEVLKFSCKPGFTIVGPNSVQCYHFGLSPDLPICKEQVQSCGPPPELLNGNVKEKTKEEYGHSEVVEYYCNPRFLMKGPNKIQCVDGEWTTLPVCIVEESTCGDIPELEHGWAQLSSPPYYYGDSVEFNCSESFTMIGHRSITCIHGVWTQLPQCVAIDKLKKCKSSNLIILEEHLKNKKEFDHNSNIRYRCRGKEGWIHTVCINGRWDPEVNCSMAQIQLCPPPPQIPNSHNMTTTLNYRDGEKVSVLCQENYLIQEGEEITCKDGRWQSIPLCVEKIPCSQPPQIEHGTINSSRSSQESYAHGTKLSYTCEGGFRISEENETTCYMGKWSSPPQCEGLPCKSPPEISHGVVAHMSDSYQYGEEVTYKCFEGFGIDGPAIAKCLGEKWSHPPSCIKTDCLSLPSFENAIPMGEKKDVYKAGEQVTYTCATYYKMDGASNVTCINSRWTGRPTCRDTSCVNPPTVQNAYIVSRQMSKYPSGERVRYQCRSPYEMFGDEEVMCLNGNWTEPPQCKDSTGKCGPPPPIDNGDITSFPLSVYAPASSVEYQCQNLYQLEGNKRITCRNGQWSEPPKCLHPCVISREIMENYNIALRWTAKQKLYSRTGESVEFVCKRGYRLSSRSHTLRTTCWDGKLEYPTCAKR

B1: v3 fHbp L149R mutant (L126R of SEQ ID NO: 17) (other)
chain: VAADIGTGLADALTAPLDHKDKGLKSLTLEDSIPQNGTLTLSAQGAEKTFKAGDKDNSLNTGKLKNDKISRFDFVQKIEVDGQTITLASGEFQIYKQNHSAVVALQIEKINNPDKTDSLINQRSFRVSGLGGEHTAFNQLPGGKAEYHGKAFSSDDPNGRLHYSIDFTKKQGYGRIEHLKTLEQNVELAAAELKADEKSHAVILGDTRYGSEEKGTYHLALFGDRAQEIAGSATVKIGEKVHEIGIAGKQ
notes: also called v3 equivalent of mutant #4
As to B1, in the assay with human factor H [1], the binding result is given as “binds”.

B2: v3 fHbp S58V mutant (S32V of SEQ ID NO: 17) (other)
chain: B1 chain with S32V, R126L
notes: also called v3 equivalent of mutant #2
Consider B2, for which, in the assay with human factor H [1], the “fold reduction of the SPR peak value against wild-type v3” value was about 2 fold.

B3: wild-type v2 fHbp (strain 2996) (other)
chain: VAADIGAGLADALTAPLDHKDKSLQSLTLDQSVRKNEKLKLAAQGAEKTYGNGDSLNTGKLKNDKVSRFDFIRQIEVDGQLITLESGEFQIYKQDHSAVVALQIEKINNPDKIDSLINQRSFLVSGLGGEHTAFNQLPDGKAEYHGKAFSSDDAGGKLTYTIDFAAKQGHGKIEHLKTPEQNVELAAAELKADEKSHAVILGDTRYGSEEKGTYHLALFGDRAQEIAGSATVKIGEKVHEIGIAGKQ
notes: Recombinant purified protein; The exact construct used in SPR is not spelled out; also called v2 w.t
As for B3, the binding result with human factor H [2] was “binds”.

B4: v2 fHbp combined mutant #2 + #12 (other)
chain: B3 chain with S32V, L123R, V124I, S125G, G126D, L127I, G128A
notes: also called mutant #23; S32V + L123-G128 RIGDIA
As to B4, the “fold reduction of the SPR peak value” with human factor H [1] was about 8 fold.

B5: v2 fHbp mutant #2 (S58V) (other)
chain: B3 chain with S32V
notes: also called S32V
In the case of B5, the binding result in the assay with human factor H [2] is given as “binds”.

B6: v2 fHbp mutant #3 + 'E313A' (other)
chain: B3 chain with S32V, L123R, E240A
notes: also called S32V + L123R + E240A
Consider B6, for which the binding result with human factor H [1] is given as “no binding”.

B7: v2 fHbp mutant #4 (L149R) (other)
chain: B3 chain with L123R
notes: also called L123R
Turning to B7, the binding result in the assay with human factor H [2] was “binds”.
